# Data published in patent US20190015518A1, “DRUG DELIVERY COMPOSITIONS AND METHODS” (priority 2016, published 2019).
# “And” between values parts separate entries of the source, which are not always exact repeats. Equal values may be shown once.
# How the values were obtained:
# [1] = Urinalysis of a healthy dog given 1.5 mg/kg on day 1 and 2.0 mg/kg on day 70, sub-mucosa; format: in vivo
# Experimental: Before each dose, the dog was examined by clinical chemistry, hematology, and urinalysis. Additional examinations of clinical chemistry and hematology were performed on days 7, 14, and 42 after the first dose. Additional tests of urinalysis were performed on days 7 and 14 after the first dose. The potential drug-induced toxicities were monitored for 56 days after the second dose. Specifically, clinical chemistry and urinalysis were performed on days 7, 14, 21, and 56, and hematology was performed on days 7, 14, and 56 after the second dose to evaluate the tolerability and toxicity of the formulation.
# Urianlyses were performed at pre- and post-dose for both injections. The injections were given via the sub-mucosa in the mouth.
# [2] = Viscosity reduction by excipients (rheometer); format: physicochemical
# Experimental: The viscosity of 29 kDa HA (60 mg/mL), 33HA-Lys (33 kDa HA with linker, 8 mg/mL on HA basis), and 33HA-Lys-Pt (41.7 mg/mL on HA basis) with increasing concentration of mannitol (0, 0.1, 0.5 and 1 M) were measured using a rheometer at 37° C.
# (§1) The solutions were incubated in the dark for 20 hours using a CLAY ADAMS® Brand Nutator. After 20 hours, the pH of the solutions were adjusted to pH 6.0 using 1N NaOH. A Brookfield DVIII Ultra Programmable Rheometer was used to measure the viscosity of three 500-μL samples of each solution. Measurements were taken for each at three different RPMs, where the torque ranged from 10-100%. Values for viscosity were not recorded until at least 30 seconds after the motor was started, after the torque readings were stabilized.
# as §1, with “to pH 5.0 or 6.0 using” for “to pH 6.0 using”
# [3] = tested on: MDA-1986 head and neck tumors; assay: Anticancer efficacy, orthotopic xenograft model of human HNSCC; format: in vivo, mouse; design: key to tumor response, Modified RECIST: PR=Partial Response (>30% reduction); PD=Progressive Disease (>30% tumor growth); SD=Stable Disease (neither PR nor PD criteria met)
# Experimental: The MDA-1986 cells were prepared in PBS at a concentration of 2×10^7 cells/mL. Female NU/NU mice were anesthetized under 2% isoflurane in O2, and 50 μL of cell solution was injected into the oral sub-mucosa of the mice using a 27-ga needle. All procedures in the animal study were approved by the Institutional Animal Care and Use Committee of the University of Kansas. Tumor growth was monitored twice weekly by measurement with a digital caliper, and the tumor volume was calculated as 0.52×(width)^2×(length). […] The drugs were given weekly for 3 consecutive weeks.
# [4] = 20 mg/kg s.c., three weekly injections
substance,measurement,setting,value
HA-cis-[Pt(NH3)2(N^α-Acetyl-L-Lysine)] [75HA-Lys-Pt],Urobilinogen,"[1]; 2 mg/kg, 7 days after",0.2 E.U./dL
same,urine Bilirubin,"[1]; 2 mg/kg, 7 days after",Moderate
same,urine Blood,"[1]; 2 mg/kg, 7 days after",Negative
same,urine Clarity,"[1]; 2 mg/kg, 7 days after",Clear
same,urine Color,"[1]; 2 mg/kg, 7 days after",Dark Yellow
same,urine Glucose,"[1]; 2 mg/kg, 7 days after",Negative
same,urine Ketones,"[1]; 2 mg/kg, 7 days after",Negative
same,urine Leukocytes,"[1]; 2 mg/kg, 7 days after",Negative
same,urine Nitrite,"[1]; 2 mg/kg, 7 days after",Negative
same,urine Protein,"[1]; 2 mg/kg, 7 days after",30 mg/dL
same,urine Specific Gravity,"[1]; 2 mg/kg, 7 days after",1.053
same,urine pH,"[1]; 2 mg/kg, 7 days after",7.0
same,Urobilinogen,"[1]; 2 mg/kg, 14 days after",0.2 E.U./dL
same,urine Bilirubin,"[1]; 2 mg/kg, 14 days after",Negative
same,urine Blood,"[1]; 2 mg/kg, 14 days after",Large
same,urine Clarity,"[1]; 2 mg/kg, 14 days after",Clear
same,urine Color,"[1]; 2 mg/kg, 14 days after",Light Yellow
same,urine Glucose,"[1]; 2 mg/kg, 14 days after",100 mg/dL
same,urine Ketones,"[1]; 2 mg/kg, 14 days after",Negative
same,urine Leukocytes,"[1]; 2 mg/kg, 14 days after",Negative
same,urine Nitrite,"[1]; 2 mg/kg, 14 days after",Negative
same,urine Protein,"[1]; 2 mg/kg, 14 days after",≥300 mg/dL
same,urine Specific Gravity,"[1]; 2 mg/kg, 14 days after",1.010
same,urine pH,"[1]; 2 mg/kg, 14 days after",7.5
same,Urobilinogen,"[1]; 2 mg/kg, 21 days after",1.0 E.U./dL
same,urine Bilirubin,"[1]; 2 mg/kg, 21 days after",Moderate
same,urine Blood,"[1]; 2 mg/kg, 21 days after",Small
same,urine Clarity,"[1]; 2 mg/kg, 21 days after",Clear
same,urine Color,"[1]; 2 mg/kg, 21 days after",Dark Orange
same,urine Glucose,"[1]; 2 mg/kg, 21 days after",Negative
same,urine Ketones,"[1]; 2 mg/kg, 21 days after",Trace
same,urine Leukocytes,"[1]; 2 mg/kg, 21 days after",Negative
same,urine Nitrite,"[1]; 2 mg/kg, 21 days after",Negative
same,urine Protein,"[1]; 2 mg/kg, 21 days after",30 mg/dL
same,urine Specific Gravity,"[1]; 2 mg/kg, 21 days after",1.044
same,urine pH,"[1]; 2 mg/kg, 21 days after",7.0
same,Urobilinogen,"[1]; 2 mg/kg, 56 days after",1.0 E.U./dL
same,urine Bilirubin,"[1]; 2 mg/kg, 56 days after",Moderate
same,urine Blood,"[1]; 2 mg/kg, 56 days after",Large
same,urine Clarity,"[1]; 2 mg/kg, 56 days after",Clear
same,urine Color,"[1]; 2 mg/kg, 56 days after",Dark Orange
same,urine Glucose,"[1]; 2 mg/kg, 56 days after",Negative
same,urine Ketones,"[1]; 2 mg/kg, 56 days after",Negative
same,urine Leukocytes,"[1]; 2 mg/kg, 56 days after",Negative
same,urine Nitrite,"[1]; 2 mg/kg, 56 days after",Negative
same,urine Protein,"[1]; 2 mg/kg, 56 days after",30 mg/dL
same,urine Specific Gravity,"[1]; 2 mg/kg, 56 days after",1.030
same,urine pH,"[1]; 2 mg/kg, 56 days after",8.0
same,Urobilinogen,"[1]; […], 7 days after",0.2 E.U./dL
same,urine Bilirubin,"[1]; […], 7 days after",Negative
same,urine Blood,"[1]; […], 7 days after",Negative
same,urine Clarity,"[1]; […], 7 days after",Cloudy
same,urine Color,"[1]; […], 7 days after",Yellow
same,urine Glucose,"[1]; […], 7 days after",Negative
same,urine Ketones,"[1]; […], 7 days after",Negative
same,urine Leukocytes,"[1]; […], 7 days after",Negative
same,urine Nitrite,"[1]; […], 7 days after",Negative
same,urine Protein,"[1]; […], 7 days after",Negative
same,urine Specific Gravity,"[1]; […], 7 days after",1.023
same,urine pH,"[1]; […], 7 days after",8.0
same,Urobilinogen,"[1]; […], 14 days",0.2 E.U./dL
same,urine Blood,"[1]; […], 14 days",Large
same,urine Clarity,"[1]; […], 14 days",Cloudy
same,urine Color,"[1]; […], 14 days",Yellow
same,urine Glucose,"[1]; […], 14 days",Negative
same,urine Ketones,"[1]; […], 14 days",Negative
same,urine Leukocytes,"[1]; […], 14 days",Negative
same,urine Nitrite,"[1]; […], 14 days",Negative
same,urine Protein,"[1]; […], 14 days",30 mg/dL
same,urine Specific Gravity,"[1]; […], 14 days",1.038
same,urine pH,"[1]; […], 14 days",6.5
same,long-term renal damage,[1]; healthy dog,did not appear to cause long-term renal damage
same,percent reduction of viscosity,"[2]; 12 mM CaAc2, pH 5.0",25.1-78.0%
same,percent reduction of viscosity,"[2]; 12 mM CaAc2, pH 6.0",21.4-81.0%
same,percent reduction of viscosity,"[2]; 12 mM NaCl, pH 5.0",36.6-83.2%
same,percent reduction of viscosity,"[2]; 12 mM calcium lactate, pH 5.0",23.0-71.8%
same,percent reduction of viscosity,"[2]; 12 mM calcium lactate, pH 6.0",24.3-80.9%
same,percent reduction of viscosity,"[2]; 12 mM sodium acetate and trehalose 15% wt, pH 5.0, two batches",54.1% and 84.3%
same,percent reduction of viscosity,"[2]; 12 mM sodium acetate, pH 5.0",14.5-89.2%
same,percent reduction of viscosity,"[2]; 12 mM sodium carbonate and trehalose 15% wt, pH 5.0",48.5-99.0%
same,percent reduction of viscosity,"[2]; 12 mM sodium carbonate, pH 5.0",60.6-99.2%
same,percent reduction of viscosity,"[2]; 12 mM sodium citrate and trehalose 15% wt, pH 5.0",15.6-95.4%
same,percent reduction of viscosity,"[2]; 12 mM sodium citrate, pH 5.0",38.4-97.2%
same,percent reduction of viscosity,"[2]; CaCl2-containing PBS buffer, pH 6.0, three batches",55.2-88.6%
same,percent reduction of viscosity,"[2]; Sodium Chelex 100, pH 5.0, two batches",82.0% and 91.7%
same,percent reduction of viscosity,"[2]; buffer-free CaCl2, pH 5.0, three batches",32.1-76.6%
same,percent reduction of viscosity,"[2]; buffer-free CaCl2, pH 6.0, three batches",26.6-77.0%
same,average tumor size by the end of the sixth week,[3]; [4],less than 200 mm^3
same,tumor progression delay,[3]; [4],delayed by four weeks
same,"tumor response, Modified RECIST",[3]; animal #1,PR (PR=Partial Response (>30% reduction))
same,"tumor response, Modified RECIST",[3]; animal #2,PR (PR=Partial Response (>30% reduction))
same,"tumor response, Modified RECIST",[3]; animal #3,PR (PR=Partial Response (>30% reduction))
same,"tumor response, Modified RECIST",[3]; animal #4,SD
same,"tumor response, Modified RECIST",[3]; animal #5,SD
same,"tumor response, Modified RECIST",[3]; animal #6,PR (PR=Partial Response (>30% reduction))
same,"tumor response, Modified RECIST",[3]; animal #7,SD
same,"tumor response, Modified RECIST",[3]; animal #8,PR (PR=Partial Response (>30% reduction))
same,rate of partial response (PR),[3]; three weekly injections,62.5%
